Target: H103C mutant of RAV-1 IN CCD (RAV-1 IN CCD_(H103C)), residues 53-199 (Rous-associated virus type 1 (RAV-1))
Assay: cross-linking; engineered Cys103-Cys103 disulfide bond; denaturing SDS-PAGE in non-reducing conditions; mass spectrometry (MALDI-TOF) of tryptic peptides

## H103C mutant of RAV-1 IN CCD (RAV-1 IN CCD_(H103C)), residues 53-199 (domain or fragment)
  stoichiometry N: 2
